Reference: publication PMC12416549 (2024)

T1: TNFR1 (Homo sapiens, UniProt P19438)
T1 chain: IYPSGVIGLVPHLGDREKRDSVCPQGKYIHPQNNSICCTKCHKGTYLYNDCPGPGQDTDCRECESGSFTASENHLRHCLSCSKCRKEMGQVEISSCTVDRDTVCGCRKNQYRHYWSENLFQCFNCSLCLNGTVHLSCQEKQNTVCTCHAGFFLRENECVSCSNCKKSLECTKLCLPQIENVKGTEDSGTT


Molecular target: T1, TNFR1
Assay: yeast display SC50

apparent Kd (screen) [nM]	Binder
0.49	A88W (designed binder) MTLQELLREEALRRAEAEAFRYALELLAEKFPEQKEYLLDLAEEIESQIRSLSGVDVEDVRKFLDKEWAWVKELLAEHPAELAEVEAWRAARLAELRAEVEAKVAA
5.31	F20E (designed binder) MTLQELLREEALRRAEAEAERYALELLAEKFPEQKEYLLDLAEEIESQIRSLSGVDVEDVRKFLDKEWAWVKELLAEHPAELAEVEAARAARLAELRAEVEAKVAA
0.49	E77Y (designed binder) MTLQELLREEALRRAEAEAFRYALELLAEKFPEQKEYLLDLAEEIESQIRSLSGVDVEDVRKFLDKEWAWVKELLAYHPAELAEVEAARAARLAELRAEVEAKVAA
2.73	S53K (designed binder) MTLQELLREEALRRAEAEAFRYALELLAEKFPEQKEYLLDLAEEIESQIRSLKGVDVEDVRKFLDKEWAWVKELLAEHPAELAEVEAARAARLAELRAEVEAKVAA

The next lines start with the binder.

Binder	apparent Kd (screen) [nM]
E86H (designed binder) MTLQELLREEALRRAEAEAFRYALELLAEKFPEQKEYLLDLAEEIESQIRSLSGVDVEDVRKFLDKEWAWVKELLAEHPAELAEVHAARAARLAELRAEVEAKVAA	0.79
Q48L (designed binder) MTLQELLREEALRRAEAEAFRYALELLAEKFPEQKEYLLDLAEEIESLIRSLSGVDVEDVRKFLDKEWAWVKELLAEHPAELAEVEAARAARLAELRAEVEAKVAA	2.73
V71N (designed binder) MTLQELLREEALRRAEAEAFRYALELLAEKFPEQKEYLLDLAEEIESQIRSLSGVDVEDVRKFLDKEWAWNKELLAEHPAELAEVEAARAARLAELRAEVEAKVAA	0.869
E29A (designed binder) MTLQELLREEALRRAEAEAFRYALELLAAKFPEQKEYLLDLAEEIESQIRSLSGVDVEDVRKFLDKEWAWVKELLAEHPAELAEVEAARAARLAELRAEVEAKVAA	0.718
D56V (designed binder) MTLQELLREEALRRAEAEAFRYALELLAEKFPEQKEYLLDLAEEIESQIRSLSGVVVEDVRKFLDKEWAWVKELLAEHPAELAEVEAARAARLAELRAEVEAKVAA	2.73
A91Q (designed binder) MTLQELLREEALRRAEAEAFRYALELLAEKFPEQKEYLLDLAEEIESQIRSLSGVDVEDVRKFLDKEWAWVKELLAEHPAELAEVEAARAQRLAELRAEVEAKVAA	0.49
K35T (designed binder) MTLQELLREEALRRAEAEAFRYALELLAEKFPEQTEYLLDLAEEIESQIRSLSGVDVEDVRKFLDKEWAWVKELLAEHPAELAEVEAARAARLAELRAEVEAKVAA	0.539
W70E (designed binder) MTLQELLREEALRRAEAEAFRYALELLAEKFPEQKEYLLDLAEEIESQIRSLSGVDVEDVRKFLDKEWAEVKELLAEHPAELAEVEAARAARLAELRAEVEAKVAA	26.9
L82F (designed binder) MTLQELLREEALRRAEAEAFRYALELLAEKFPEQKEYLLDLAEEIESQIRSLSGVDVEDVRKFLDKEWAWVKELLAEHPAEFAEVEAARAARLAELRAEVEAKVAA	0.539
R21E (designed binder) MTLQELLREEALRRAEAEAFEYALELLAEKFPEQKEYLLDLAEEIESQIRSLSGVDVEDVRKFLDKEWAWVKELLAEHPAELAEVEAARAARLAELRAEVEAKVAA	0.49
